For two substances, Binding Ratio of Geom. Mean to Unstained Cells results are on record in US20190177410A1.

For test [1], the target named is T1, full length cynomolgus APLNR (MfAPLNR) (cynomolgus (Macaca fascicularis)).
T1 sequence: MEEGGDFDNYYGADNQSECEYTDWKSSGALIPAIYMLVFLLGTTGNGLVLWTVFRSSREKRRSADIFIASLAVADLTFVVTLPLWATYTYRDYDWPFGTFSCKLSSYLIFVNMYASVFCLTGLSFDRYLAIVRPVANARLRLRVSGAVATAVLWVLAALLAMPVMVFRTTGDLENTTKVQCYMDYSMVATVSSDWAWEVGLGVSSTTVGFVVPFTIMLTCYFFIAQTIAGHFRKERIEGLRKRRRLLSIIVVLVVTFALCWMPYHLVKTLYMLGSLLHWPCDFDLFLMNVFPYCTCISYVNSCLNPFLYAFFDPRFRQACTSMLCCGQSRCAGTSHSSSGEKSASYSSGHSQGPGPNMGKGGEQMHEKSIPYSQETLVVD
The test can be described thus: FACS, secondary antibody alone (4 ug/mL) on HEK293/CRE-luc/MfAPLNR cells. A general note: In flow cytometry, cells or beads pass a laser one at a time.

In test [2] the target is full-length human APLNR (hAPLNR) (human) (UniProt P35414). The test can be described thus: FACS, secondary antibody alone on HEK293/CRE-luc/hAPLNR cells.
For test [3] the target is unchanged. In words: FACS, secondary antibody alone (4 ug/mL) on HEK293/CRE-luc/hAPLNR cells.
Test [4] concerns the target T1, full length cynomolgus APLNR (MfAPLNR) (cynomolgus (Macaca fascicularis)). The test can be described thus: FACS, secondary antibody alone on HEK293/CRE-luc/MfAPLNR cells.

For “anti-human IgG antibody conjugated with Alexa 488 (secondary antibody alone)”, the Binding Ratio of Geom. Mean to Unstained Cells in test [1], in test [2], in test [3] and in test [4] was 2 fold throughout.

Turning to “anti-mouse IgG antibody conjugated with Alexa 647 (secondary antibody alone)”, the Binding Ratio of Geom. Mean to Unstained Cells in test [1] was found to be 3 fold; in test [3] it was 4 fold.
